From patent publication US20230192860A1 (Bristol-Myers Squibb, published 2023)
Where a chain is given by its changes, count along the chain named. Names and notes keep the numbering of the source. Blank lines part the entries; values can stand above or below the binder they belong to.

Assays:
hVISTA-ECD 6-His tag [1] = target: T1, hVISTA-ECD 6-His tag (human, UniProt Q9H7M9 33-193); assay: SPR; kd at pH 6.45 over kd at pH 6.0 (head prints 7.4)
T1 construct: also called monovalent hVISTA-ECD; human VISTA
T1 sequence (Q9H7M9 other isoform, or with tags, fused parts or gaps limits assumed): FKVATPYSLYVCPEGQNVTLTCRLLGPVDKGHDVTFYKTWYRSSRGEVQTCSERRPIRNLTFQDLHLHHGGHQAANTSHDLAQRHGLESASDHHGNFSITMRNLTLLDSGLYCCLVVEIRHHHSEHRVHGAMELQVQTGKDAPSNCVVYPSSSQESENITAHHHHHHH
Procedure: (§1) Further binding kinetic experiments were performed at various pHs on VISTA antibodies described herein by SPR as generally described in Example 9 above. Antibodies were normalized to 50 nM concentration in PBST pH 7.4 and captured on a Protein A CM5 chip (ID 4931) by injecting for 45 seconds at a 5 µL/min flow rate. An 8-point human VISTA titration ([…]) was prepared in PBST at pH 7.4, 6.9, 6.45, and 6.0. Titrations were injected over the captured antibodies for 180 seconds at 30 µL/min. Sensorgrams were fit to a 1:1 binding model in T200 evaluation software and the kinetic constants were reported.
(§2) Each table reports the data at one of the four tested pHs (7.4, 6.9, 6.45, and 6.0, respectively). The 8-point hVISTA titration used in these assays was chosen to provide increased confidence in kinetic values reported at neutral pH conditions. A relatively stringent cutoff for non-binding was applied in this assay. Certain progeny of P1-061029 antibody (P1-068757, ‘759, ‘765, ‘771, and ‘775) show no binding to hVISTA at micromolar concentrations at pH 7.4, while ‘761 and ‘767 show no binding to hVISTA at 100 nM at pH 7.4 but do show binding to hVISTA at micromolar concentrations.

hVISTA-ECD 6-His tag [2] = target: T1, hVISTA-ECD 6-His tag; assay: SPR; KD at pH 6.45 over KD at pH 6.0 (head prints 7.4)
hVISTA-ECD 6-His tag [3] = target: T1, hVISTA-ECD 6-His tag; assay: SPR; KD at pH 6.9 over KD at pH 6.0 (head prints 7.4)
Procedure: as §1, §2

hVISTA-ECD 6-His tag [4] = target: T1, hVISTA-ECD 6-His tag; assay: SPR, Ab on Protein A, hVISTA analyte, pH 6.45
hVISTA-ECD 6-His tag [5] = target: T1, hVISTA-ECD 6-His tag; assay: SPR; kd at pH 6.9 over kd at pH 6.0 (head prints 7.4)
Procedure: as §1, §2

hVISTA-ECD 6-His tag [6] = target: T1, hVISTA-ECD 6-His tag; assay: SPR, Ab on Protein A, hVISTA analyte, pH 6.0
hVISTA-ECD 6-His tag [7] = target: T1, hVISTA-ECD 6-His tag; assay: SPR, Ab on Protein A, hVISTA analyte, pH 6.9
Procedure: as §1, §2

- 7.4 kd/ 6.0 kd (hVISTA-ECD 6-His tag [1]): 2.2
- 7.4 KD/ 6.0 KD (hVISTA-ECD 6-His tag [2]): 5.2
- 7.4 KD/ 6.0 KD (hVISTA-ECD 6-His tag [3]): 23
- Kd (hVISTA-ECD 6-His tag [4]): 54 nM
- koff (hVISTA-ECD 6-His tag [4]): 0.006 s⁻¹
- kon (hVISTA-ECD 6-His tag [4]): 110000 M⁻¹ s⁻¹
- 7.4 kd/ 6.0 kd (hVISTA-ECD 6-His tag [5]): 4.4
- Kd (hVISTA-ECD 6-His tag [6]): 10 nM
- koff (hVISTA-ECD 6-His tag [6]): 0.0028 s⁻¹
- kon (hVISTA-ECD 6-His tag [6]): 270000 M⁻¹ s⁻¹
- Kd (hVISTA-ECD 6-His tag [7]): 240 nM
- koff (hVISTA-ECD 6-His tag [7]): 0.012 s⁻¹
- kon (hVISTA-ECD 6-His tag [7]): 51000 M⁻¹ s⁻¹
B1: P1-070908 (P1-068767_E55A) (antibody, human IgG1, kappa, V domains shown)
VH: EVQLVESGGGLVQPGKSLRLSCAASGFTLEDYAMHWVRQAPGKGLEWVSGIDWNSANIGYADSVKGRFTISRDNAKNSLYLQMNSLRTEDTALYYCAKVPGYSGGWIDAEDDWGQGTMVTVSS
VL: not shown
notes: also called P1-070908-6

- 7.4 kd/ 6.0 kd (hVISTA-ECD 6-His tag [1]): 2
- 7.4 KD/ 6.0 KD (hVISTA-ECD 6-His tag [2]): 4.3
- 7.4 KD/ 6.0 KD (hVISTA-ECD 6-His tag [3]): 21.1
- Kd (hVISTA-ECD 6-His tag [4]): 46 nM
- koff (hVISTA-ECD 6-His tag [4]): 0.0049 s⁻¹
- kon (hVISTA-ECD 6-His tag [4]): 110000 M⁻¹ s⁻¹
- 7.4 kd/ 6.0 kd (hVISTA-ECD 6-His tag [5]): 4.4
- Kd (hVISTA-ECD 6-His tag [6]): 11 nM
- koff (hVISTA-ECD 6-His tag [6]): 0.0024 s⁻¹
- kon (hVISTA-ECD 6-His tag [6]): 230000 M⁻¹ s⁻¹
- Kd (hVISTA-ECD 6-His tag [7]): 230 nM
- koff (hVISTA-ECD 6-His tag [7]): 0.011 s⁻¹
- kon (hVISTA-ECD 6-His tag [7]): 48000 M⁻¹ s⁻¹
B2: P1-070914 (P1-068767_E30D_D52N) (antibody, human IgG1, kappa, V domains shown)
VH: B1 VH with E30D, D52N, A56E
VL: not shown
notes: also called P1-070914-3

- 7.4 kd/ 6.0 kd (hVISTA-ECD 6-His tag [1]): 2.3
- 7.4 KD/ 6.0 KD (hVISTA-ECD 6-His tag [2]): 4.1
- 7.4 KD/ 6.0 KD (hVISTA-ECD 6-His tag [3]): 14.9
- Kd (hVISTA-ECD 6-His tag [4]): 68 nM
- koff (hVISTA-ECD 6-His tag [4]): 0.0086 s⁻¹
- kon (hVISTA-ECD 6-His tag [4]): 130000 M⁻¹ s⁻¹
- 7.4 kd/ 6.0 kd (hVISTA-ECD 6-His tag [5]): 7.2
- Kd (hVISTA-ECD 6-His tag [6]): 17 nM
- koff (hVISTA-ECD 6-His tag [6]): 0.0038 s⁻¹
- kon (hVISTA-ECD 6-His tag [6]): 230000 M⁻¹ s⁻¹
- Kd (hVISTA-ECD 6-His tag [7]): 250 nM
- koff (hVISTA-ECD 6-His tag [7]): 0.028 s⁻¹
- kon (hVISTA-ECD 6-His tag [7]): 110000 M⁻¹ s⁻¹
B3: P1-070904 (P1-068767_E30D) (antibody, human IgG1, kappa, V domains shown)
VH: B1 VH with E30D, A56E
VL: not shown
notes: also called P1-070904-3

- 7.4 kd/ 6.0 kd (hVISTA-ECD 6-His tag [1]): 2.1
- 7.4 KD/ 6.0 KD (hVISTA-ECD 6-His tag [2]): 5.1
- 7.4 KD/ 6.0 KD (hVISTA-ECD 6-His tag [3]): 36.5
- Kd (hVISTA-ECD 6-His tag [4]): 31 nM
- koff (hVISTA-ECD 6-His tag [4]): 0.0039 s⁻¹
- kon (hVISTA-ECD 6-His tag [4]): 130000 M⁻¹ s⁻¹
- 7.4 kd/ 6.0 kd (hVISTA-ECD 6-His tag [5]): 4.4
- Kd (hVISTA-ECD 6-His tag [6]): 6 nM
- koff (hVISTA-ECD 6-His tag [6]): 0.0019 s⁻¹
- kon (hVISTA-ECD 6-His tag [6]): 310000 M⁻¹ s⁻¹
- Kd (hVISTA-ECD 6-His tag [7]): 220 nM
- koff (hVISTA-ECD 6-His tag [7]): 0.0084 s⁻¹
- kon (hVISTA-ECD 6-His tag [7]): 38000 M⁻¹ s⁻¹
B4: P1-070906 (P1-068767_D52N) (antibody, human IgG1, kappa, V domains shown)
VH: B1 VH with D52N, A56E
VL: not shown
notes: also called P1-070906-6

- 7.4 kd/ 6.0 kd (hVISTA-ECD 6-His tag [1]): 0.2
- 7.4 KD/ 6.0 KD (hVISTA-ECD 6-His tag [2]): 0.3
- 7.4 KD/ 6.0 KD (hVISTA-ECD 6-His tag [3]): 0.1
- Kd (hVISTA-ECD 6-His tag [4]): 5.69 nM
- koff (hVISTA-ECD 6-His tag [4]): 0.00554 s⁻¹
- kon (hVISTA-ECD 6-His tag [4]): 975000 M⁻¹ s⁻¹
- 7.4 kd/ 6.0 kd (hVISTA-ECD 6-His tag [5]): 0
- Kd (hVISTA-ECD 6-His tag [6]): 16.8 nM
- koff (hVISTA-ECD 6-His tag [6]): 0.0323 s⁻¹
- kon (hVISTA-ECD 6-His tag [6]): 1.93e+06 M⁻¹ s⁻¹
- Kd (hVISTA-ECD 6-His tag [7]): 2.15 nM
- koff (hVISTA-ECD 6-His tag [7]): 0.00139 s⁻¹
- kon (hVISTA-ECD 6-His tag [7]): 646000 M⁻¹ s⁻¹
B5: P1-061520 (41F11 VK_A64G) (antibody, V domains shown)
VH: QVQLVESGGGLVKPGGSLRLSCAASGFTFSDYYMSWIRQAPGKGLEWVSYISNSGSPIYYADSVKGRFTISRDNAKNSLYLQMNSLRAEDTAVYYCARDLPGWYFDLWGRGTLVTVSS
VL: EIVLTQSPATLSLSPGERATLSCRASQSVSSYLAWYQQKPGQAPRLLIYDASNRATGIPARFSGSGSGTDFTLTISSLEPEDFAVYYCQQRNNWPRTFGQGTKVEIK
notes: also called P1-061520-21; VISTA.4.A64G

- 7.4 kd/ 6.0 kd (hVISTA-ECD 6-His tag [1]): 1.7
- 7.4 KD/ 6.0 KD (hVISTA-ECD 6-His tag [2]): 4.4
- 7.4 KD/ 6.0 KD (hVISTA-ECD 6-His tag [3]): 98.2
- Kd (hVISTA-ECD 6-His tag [4]): 44 nM
- koff (hVISTA-ECD 6-His tag [4]): 0.0039 s⁻¹
- kon (hVISTA-ECD 6-His tag [4]): 90000 M⁻¹ s⁻¹
- 7.4 kd/ 6.0 kd (hVISTA-ECD 6-His tag [5]): 4.4
- Kd (hVISTA-ECD 6-His tag [6]): 9.9 nM
- koff (hVISTA-ECD 6-His tag [6]): 0.0023 s⁻¹
- kon (hVISTA-ECD 6-His tag [6]): 240000 M⁻¹ s⁻¹
- Kd (hVISTA-ECD 6-His tag [7]): 970 nM
- koff (hVISTA-ECD 6-His tag [7]): 0.01 s⁻¹
- kon (hVISTA-ECD 6-His tag [7]): 11000 M⁻¹ s⁻¹
B6: P1-070976 (41F11_VH_T28P_Y50W_S55E_D95H_L96E_P97E_Y100E; Vk_A64G) (antibody, V domains shown)
VH: B5 VH with T28P, Y50W, S56E, D99H, L100E, P101E, Y104E
VL: B5 VL
notes: They look like Kabat positions on the mature VH, but no numbering scheme is stated; also called P1-070976-11
